The target in the assay is BB2 receptor (gastrin-releasing peptide receptor) (human (endogenous in PC-3), UniProt P30550 1-384). As to the kind of experiment: radioligand binding.

*: point of attachment. DOTA = O=C(O)CN1CCN(CC(=O)O)CCN(CC(=O)*)CCN(CC(=O)O)CC1; Aoc = NCCCCCCCC(=O)O

The text below walks through data of PMC2647743 (Bioconjugate chemistry, 2008).

Sequence of BB2 receptor (gastrin-releasing peptide receptor) (P30550 whole entry): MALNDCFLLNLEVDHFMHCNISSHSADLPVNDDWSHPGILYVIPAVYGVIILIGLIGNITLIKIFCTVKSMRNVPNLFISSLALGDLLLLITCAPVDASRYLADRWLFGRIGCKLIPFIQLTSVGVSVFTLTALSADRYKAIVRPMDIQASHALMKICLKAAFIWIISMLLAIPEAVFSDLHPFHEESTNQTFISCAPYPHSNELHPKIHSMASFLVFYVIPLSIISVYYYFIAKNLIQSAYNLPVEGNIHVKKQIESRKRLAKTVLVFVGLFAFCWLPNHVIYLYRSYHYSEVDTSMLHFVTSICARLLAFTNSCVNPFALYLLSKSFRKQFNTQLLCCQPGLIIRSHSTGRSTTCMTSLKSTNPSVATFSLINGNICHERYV

In the case of {DOTA-Aoc}-HMGWLAQV-NH2 (also: In complex of DOTA) [In-DOTA-8-AOC-NONSENSE], the IC50 is above 10 µM.

B1: DOTA-8-AOC-NONSENSE (peptide)
peptide: {DOTA-Aoc}-HMGWLAQV-NH2
SMILES: CSCC[C@H](NC(=O)[C@H](Cc1c[nH]cn1)NC(=O)CCCCCCCNC(=O)CN1CCN(CC(=O)O)CCN(CC(=O)O)CCN(CC(=O)O)CC1)C(=O)NCC(=O)N[C@@H](Cc1c[nH]c2ccccc12)C(=O)N[C@@H](CC(C)C)C(=O)N[C@@H](C)C(=O)N[C@@H](CCC(N)=O)C(=O)N[C@H](C(N)=O)C(C)C
Turning to B1, the IC50 was above 10 µM.
